Results published in article PMC10397247.
Read-outs that look alike come from different tables or passages of the source.

Experiments:
[1] = target: T1, 4H3277-bH; test: two-hybrid library CCNG1;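 further: natural log of median RNA to DNA barcode read ratio; higher means stronger binding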
T1 chain: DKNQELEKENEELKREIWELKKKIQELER

[2] = target: T2, 4H40-bH; test: two-hybrid library CCNG1;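 further: natural log of median RNA to DNA barcode read ratio; higher means stronger binding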
T2 chain: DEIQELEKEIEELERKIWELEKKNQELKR

[3] = target: T3, 4H319-bH; test: two-hybrid library CCNG1;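 further: natural log of median RNA to DNA barcode read ratio; higher means stronger binding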
T3 chain: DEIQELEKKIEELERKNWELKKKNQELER

[4] = target: T4, 4H3057-bH; test: two-hybrid library CCNG1;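 further: natural log of median RNA to DNA barcode read ratio; higher means stronger binding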
T4 chain: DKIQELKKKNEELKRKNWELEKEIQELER

[5] = target: T5, 4H2915-bH; test: two-hybrid library CCNG1
T5 chain: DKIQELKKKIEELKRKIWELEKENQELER

[6] = target: T6, 4H477-bH; test: two-hybrid library CCNG1
T6 chain: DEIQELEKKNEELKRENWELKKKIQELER

[7] = target: T7, 4H741-bH; test: two-hybrid library CCNG1
T7 chain: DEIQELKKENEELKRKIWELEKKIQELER

[8] = target: T8, 4H492-bH; test: two-hybrid library CCNG1
T8 chain: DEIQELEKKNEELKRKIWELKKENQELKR

[9] = target: T9, 4H2839-bH; test: two-hybrid library CCNG1
T9 chain: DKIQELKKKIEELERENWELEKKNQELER

[10] = target: T10, 4H348-bH; test: two-hybrid library CCNG1
T10 chain: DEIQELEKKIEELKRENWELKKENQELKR

[11] = target: T11, P2-AA-12HAA-H; test: two-hybrid library CCmax; settings: mean of both orientations
T11 chain: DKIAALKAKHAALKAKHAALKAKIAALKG

[12] = target: T12, P2-AA-12HAA-S; test: two-hybrid library CCmax; settings: mean of both orientations
T12 chain: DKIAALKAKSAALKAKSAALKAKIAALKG

[13] = target: T13, P2-AA-12HAA-E; test: two-hybrid library CCmax
T13 chain: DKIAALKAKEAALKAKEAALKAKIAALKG

[14] = target: T14, P2-AA-12HAA-D; test: two-hybrid library CCmax; settings: mean of both orientations
T14 chain: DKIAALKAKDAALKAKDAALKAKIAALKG

[15] = target: T15, P2-AA-12HAA-T; test: two-hybrid library CCmax; settings: mean of both orientations
T15 chain: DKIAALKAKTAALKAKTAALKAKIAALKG

[16] = target: T16, P2-AA-12HAA-L; test: two-hybrid library CCmax
T16 chain: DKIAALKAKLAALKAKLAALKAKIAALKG

[17] = target: T17, P2-AA; test: two-hybrid library CCmax; settings: mean of both orientations
T17 chain: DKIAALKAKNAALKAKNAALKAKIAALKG

[18] = target: T18, P2-AA-12HAA-K; test: two-hybrid library CCmax; settings: mean of both orientations
T18 chain: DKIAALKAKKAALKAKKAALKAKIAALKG

[19] = target: T19, P2-AA-12HAA-Y; test: two-hybrid library CCmax; settings: mean of both orientations
T19 chain: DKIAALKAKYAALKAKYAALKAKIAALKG

[20] = target: T20, P2-AA-12HAA-I; test: two-hybrid library CCmax; settings: mean of both orientations
T20 chain: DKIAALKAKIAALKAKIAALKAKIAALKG

[21] = target: T21, P2-AA-12HAA-R; test: two-hybrid library CCmax; settings: mean of both orientations
T21 chain: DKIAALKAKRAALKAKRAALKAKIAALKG

[22] = target: T22, P2-AA-12HAA-V; test: two-hybrid library CCmax; settings: mean of both orientations
T22 chain: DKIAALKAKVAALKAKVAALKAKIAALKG

[23] = target: T23, P2-AA-12HGe-W; test: two-hybrid library CCmax
T23 chain: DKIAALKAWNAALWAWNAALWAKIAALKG

[24] = target: T24, P9bHq; test: two-hybrid library CCNG1
T24 chain: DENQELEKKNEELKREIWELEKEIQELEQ

[25] = target: T25, 4H390-AA; test: two-hybrid library CCmax; settings: mean of both orientations
T25 chain: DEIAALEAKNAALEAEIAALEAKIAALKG

[26] = target: T26, 4H3625-AA; test: two-hybrid library CCmax; settings: mean of both orientations
T26 chain: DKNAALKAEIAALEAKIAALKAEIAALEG

[27] = target: T27, 4H510-AA; test: two-hybrid library CCmax; settings: mean of both orientations
T27 chain: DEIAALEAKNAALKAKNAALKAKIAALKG

[28] = target: T28, 4H278-AA; test: two-hybrid library CCmax; settings: mean of both orientations
T28 chain: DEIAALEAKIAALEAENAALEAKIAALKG

[29] = target: T29, 4H816-AA; test: two-hybrid library CCmax; settings: mean of both orientations
T29 chain: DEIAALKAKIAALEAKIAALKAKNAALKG

[30] = target: T30, 4H2873-AA; test: two-hybrid library CCmax; settings: mean of both orientations
T30 chain: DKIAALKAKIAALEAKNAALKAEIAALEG

[31] = target: T31, 4H2758-AA; test: two-hybrid library CCmax
T31 chain: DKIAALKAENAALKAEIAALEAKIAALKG

[32] = target: T32, 4H3940-AA; test: two-hybrid library CCmax; settings: mean of both orientations
T32 chain: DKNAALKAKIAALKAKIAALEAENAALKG

[33] = target: T33, 4H87-AA; test: two-hybrid library CCmax; settings: mean of both orientations
T33 chain: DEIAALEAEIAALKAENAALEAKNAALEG

[34] = target: T34, 4H3134-AA; test: two-hybrid library CCmax; settings: mean of both orientations
T34 chain: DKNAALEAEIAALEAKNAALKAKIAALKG

[35] = target: T35, 4H2985-AA; test: two-hybrid library CCmax; settings: mean of both orientations
T35 chain: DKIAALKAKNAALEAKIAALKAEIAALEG

[36] = target: T36, 4H775-AA; test: two-hybrid library CCmax; settings: mean of both orientations
T36 chain: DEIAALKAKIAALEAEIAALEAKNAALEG

[37] = target: T37, 4H3409-AA; test: two-hybrid library CCmax; settings: mean of both orientations
T37 chain: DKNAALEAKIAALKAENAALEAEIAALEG

[38] = target: T38, O5; test: two-hybrid library CC0; settings: mean of both orientations
T38 chain: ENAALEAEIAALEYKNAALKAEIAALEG

[39] = target: T39, O8; test: two-hybrid library CC0; settings: mean of both orientations
T39 chain: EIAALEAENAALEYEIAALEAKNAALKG

[40] = target: T40, O7; test: two-hybrid library CC0; settings: mean of both orientations
T40 chain: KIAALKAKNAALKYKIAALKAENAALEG

[41] = target: T41, O6; test: two-hybrid library CC0; settings: mean of both orientations
T41 chain: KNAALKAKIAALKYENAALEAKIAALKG

[42] = target: T42, O9; test: two-hybrid library CC0; settings: mean of both orientations
T42 chain: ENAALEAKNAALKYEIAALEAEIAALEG

Binder: DKIQELKKKIEELERENWELEKKNQELER [4H2839-bH]
- interaction score [1]: -1.06
- interaction score [2]: 0.0596
- interaction score [3]: 1.44
- interaction score [4]: 0.0652
- interaction score [5]: 0.242
- interaction score [6]: -0.629
- interaction score [7]: -0.868
- interaction score [8]: -0.474
- interaction score [9]: 1.04
- interaction score [10]: 0.581

Binder: DEIAALEAEDAALEAEDAALEAEIAALEG [P1-AA-12HAA-D]
- interaction score [11]: 0.205
- interaction score [12]: 0.438
- interaction score ([13]; mean of both orientations): -1.33
- interaction score [14]: -1.35
- interaction score [15]: -1.11
- interaction score ([16]; mean of both orientations): -1.19
- interaction score [17]: -0.884
- interaction score [18]: 0.46
- interaction score [19]: -1.44
- interaction score [20]: -0.345
- interaction score [21]: 1.84
- interaction score [22]: -0.204
- interaction score [23]: -2.4

Binder: DEIAALEAEVAALEAEVAALEAEIAALEG [P1-AA-12HAA-V]
- interaction score [11]: 1.25
- interaction score [12]: 1.44
- interaction score [13]: 1.83
- interaction score [14]: 1.1
- interaction score [15]: 1.86
- interaction score [16]: 1.78
- interaction score [17]: 2.1
- interaction score [18]: 1.35
- interaction score [19]: 1.8
- interaction score [20]: 1.82
- interaction score [21]: 1.69
- interaction score [22]: 2.21

Binder: DEIAALEAEAAALEAEAAALEAEIAALEG [P1-AA-12HAA-A]
- interaction score [11]: 2.14
- interaction score [12]: 1.55
- interaction score ([13]; mean of both orientations): 0.947
- interaction score [14]: -0.675
- interaction score [15]: 1.66
- interaction score ([16]; mean of both orientations): 1.84
- interaction score [17]: 1.79
- interaction score [18]: 1.48
- interaction score [19]: 2
- interaction score [20]: 1.82
- interaction score [21]: 0.883
- interaction score [22]: 1.9

Binder: DENQELEKKNEELKREIWELEKEIQELEQ [P9bHq]
- interaction score [24]: -0.654

Binder: DKIAALKAENAALKAEIAALEAKIAALKG [4H2758-AA]
- interaction score [25]: 0.895
- interaction score [26]: -0.393
- interaction score [27]: 0.225
- interaction score [28]: -0.138
- interaction score [29]: -1.38
- interaction score [30]: -0.654
- interaction score [31]: 1.56
- interaction score [32]: -1.45
- interaction score [33]: -1.35
- interaction score [34]: 0.499
- interaction score [35]: 1.59
- interaction score [36]: -0.652
- interaction score [37]: -0.325

Binder: ENAALEAEIAALEYKNAALKAEIAALEG [O5]
- interaction score [38]: -2.78
- interaction score [39]: -2.47
- interaction score [40]: -2.67
- interaction score [41]: 1.41
- interaction score [42]: -2.73
